Assay results from patent US20130330346A1 (Novartis, published 2013).
Where a chain is given by its changes, count along the chain named. Read-outs that look alike come from different tables or passages of the source. Ends that are not written are not given here.

Assays:
Human CXCR2 [1] = target: T1, Human CXCR2 (human, UniProt P25025 1-360); assay: cell-based or functional assay
T1 sequence: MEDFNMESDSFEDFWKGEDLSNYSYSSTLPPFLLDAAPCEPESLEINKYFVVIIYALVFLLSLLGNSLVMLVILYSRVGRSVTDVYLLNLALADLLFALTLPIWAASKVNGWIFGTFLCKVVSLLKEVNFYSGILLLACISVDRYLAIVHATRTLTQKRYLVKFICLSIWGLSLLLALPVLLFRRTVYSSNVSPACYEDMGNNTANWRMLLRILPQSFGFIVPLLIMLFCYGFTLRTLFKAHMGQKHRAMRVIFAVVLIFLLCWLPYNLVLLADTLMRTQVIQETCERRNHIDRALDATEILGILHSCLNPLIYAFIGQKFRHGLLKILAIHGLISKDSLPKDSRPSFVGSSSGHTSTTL

Cynomolgus CXCR2 [2] = target: T2, Cynomolgus CXCR2 (cynomolgus, UniProt Q28519 3-353 (rhesus entry)); assay: cell-based or functional assay
T2 chain: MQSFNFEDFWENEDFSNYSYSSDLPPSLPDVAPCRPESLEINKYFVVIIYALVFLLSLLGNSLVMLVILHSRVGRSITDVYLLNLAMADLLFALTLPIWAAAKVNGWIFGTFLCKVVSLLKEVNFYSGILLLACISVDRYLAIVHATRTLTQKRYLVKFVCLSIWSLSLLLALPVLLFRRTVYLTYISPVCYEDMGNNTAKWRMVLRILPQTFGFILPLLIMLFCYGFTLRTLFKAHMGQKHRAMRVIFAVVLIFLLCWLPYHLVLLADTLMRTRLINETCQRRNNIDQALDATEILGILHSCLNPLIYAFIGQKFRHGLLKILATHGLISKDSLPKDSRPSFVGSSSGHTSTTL

Human CXCR2 [3] = target: T1, Human CXCR2; assay: cell-based or functional assay; remark: listed apart in the source
Cynomolgus CXCR2 [4] = target: T2, Cynomolgus CXCR2; assay: cell-based or functional assay
Human CXCR2 [5] = target: T1, Human CXCR2; assay: FACS competition vs 3 nM FMAT-Blue Gro-α
Method: (§1) Purified monovalent anti-CXCR2Nanobodies were titrated against 3 nM FMAT-Blue-labeled Gro-α in the FACS ligand competition assay on human and cynomolgus CXCR2 (Table 10). On human CXCR2, blocking potencies range between double digit nM and sub-nM whereas on cynomolgus CXCR2, they range between single and double digit nM.

Cynomolgus CXCR2 [6] = target: T2, Cynomolgus CXCR2; assay: FACS competition vs 3 nM FMAT-Blue Gro-α
Method: as §1

Human CXCR2 [7] = target: T1, Human CXCR2; assay: FACS, periplasmic extract vs FMAT Blue Gro-α
Method: Periplasmic extracts (as described above) were analyzed on FACS for competition with Gro-α in binding to human CXCR2. 2×10⁵ cells were incubated with a ½ dilution of periplasmic extracts in FACS buffer (PBS+10% fetal bovine serum (Sigma, F7524)) for 30 minutes at 4° C. Then, an equal volume of 6 nM of FMAT Blue-labeled human Gro-α in FACS buffer was added and incubation was continued for another 30 minutes at 4° C. in the dark. Cells were then washed three times in FACS buffer and finally resuspended in FACS buffer. Dead cells were stained with propidium iodide (Sigma, P4170). Samples were then analyzed on a FACSarray (BD Biosciences).

Human 1to19 peptide = target: T3, Human 1to19 peptide (human); assay: ELISA, periplasmic extract on biotinylated peptide
T3 construct: First 19 N-terminal amino acids of human CXCR2, captured on neutravidin; also called human CXCR2 1 to19 peptide; 1-19 Nter peptide
T3 peptide: MEDFNMESDSFEDFWKGED-biotin
Method: In another setup, periplasmic extracts were analyzed for binding to human 1 to 19 peptide by ELISA. MaxiSorb plates (Nunc, 430341) were coated for two hours with neutravidin followed by one hour blocking (PBS, 1% casein). Then 100 nM biotinylated human 1 to 19 peptide was added to these plates for one hour (PBS, 0.1% casein, 0.05% tween20) followed by one hour incubation with 10-fold dilutions of periplasmic extracts. Unbound periplasmic extracts were washed away (PBS supplemented with 0.05% tween20) and bound Nanobodies were detected using mouse anti-myc (Roche, 11667149001) followed by rabbit anti-mouse-HRP conjugate (Dakocytomation, P0260). Table 8 summarizes the ratios of the binding signals of anti-CXCR2Nanobodies over an irrelevant control Nanobody.

Human CXCR2 [8] = target: T1, Human CXCR2; assay: FACS hGro-α competition
Cynomolgus CXCR2 [9] = target: T2, Cynomolgus CXCR2; assay: FACS hGro-α competition
Human CXCR2 [10] = target: T1, Human CXCR2; assay: cell-based or functional assay; remark: listed apart in the source
Cynomolgus CXCR2 [11] = target: T2, Cynomolgus CXCR2; assay: cell-based or functional assay
Human CXCR2 [12] = target: T1, Human CXCR2; assay: immunoluminescence, HEK-293T with wild type receptor, 1.0 ug/ml, anti-myc detection
Human CXCR2 [13] = target: T1, Human CXCR2; assay: cell-based or functional assay; remark: listed apart in the source
Cynomolgus CXCR2 [14] = target: T2, Cynomolgus CXCR2; assay: cell-based or functional assay
Human CXCR2 [15] = target: T1, Human CXCR2; assay: FACS hGro-α competition; remark: listed apart in the source
Cynomolgus CXCR2 [16] = target: T2, Cynomolgus CXCR2; assay: FACS hGro-α competition
Human CXCR2 [17] = target: T1, Human CXCR2; assay: FACS hGro-α competition; remark: listed apart in the source
Cynomolgus CXCR2 [18] = target: T2, Cynomolgus CXCR2; assay: FACS hGro-α competition
Human CXCR2 [19] = target: T1, Human CXCR2; assay: cell-based or functional assay; remark: listed apart in the source
Human CXCR2 [20] = target: T1, Human CXCR2; assay: cell-based or functional assay; remark: listed apart in the source
Cynomolgus CXCR2 [21] = target: T2, Cynomolgus CXCR2; assay: cell-based or functional assay
Human CXCR2 [22] = target: T1, Human CXCR2; assay: cell-based or functional assay; remark: listed apart in the source
Cynomolgus CXCR2 [23] = target: T2, Cynomolgus CXCR2; assay: cell-based or functional assay
Cynomolgus CXCR2 [24] = target: T2, Cynomolgus CXCR2; assay: FACS hGro-α competition

B1: 163D2 (VHH)
VHH: EVQLVESGGGLVQAGGSLRLSCAASGRTFSDYAMGWFRQAPGKEREFVAAITWNGGRVFYTASVKGRFTISRDNAKNTMYLQMNSLKPEDTAVYYCAADKDRRTDYLGHPVAYWGQGTQVTVSS
notes: Tested as periplasmic extract (pAX50) and as purified His6-tagged protein (pAX100); also called 163D02; not shown: C-terminal c-myc tag and His6 tag coded by the vector
FLIPR hGro-α IC50 (Human CXCR2 [1]): 66 nM | FLIPR hGro-α IC50 (Cynomolgus CXCR2 [2]): 92 nM | FLIPR % inhibition max (Human CXCR2 [3]): 100% | FLIPR IC50 (GRO-α induced calcium release) (Human CXCR2 [3]): 1.91 nM | [35S]GTPγS % inhibition max (GRO-α) (Human CXCR2 [3]): 100% | [35S]GTPγS IC50 (GRO-α) (Human CXCR2 [3]): 53.2 nM | FLIPR % inhibition max (Cynomolgus CXCR2 [4]): 100% | FLIPR IC50 (GRO-α induced calcium release) (Cynomolgus CXCR2 [4]): 37.2 nM | % inhibition of max (Human CXCR2 [5]): 96.4% | IC50 (Human CXCR2 [5]): 6.95 nM | % inhibition of max (Cynomolgus CXCR2 [6]): 91% | IC50 (Cynomolgus CXCR2 [6]): 14.8 nM | FACS Gro-α competition (% inhibition) (Human CXCR2 [7]): 86.8% | ratio of binding signal relative to blank control (Human 1to19 peptide): 0.5 ratio | IC50 (Human CXCR2 [8]): 2.8 nM | IC50 (Cynomolgus CXCR2 [9]): 7.1 nM | Human WBSC IC50 (rhGROα) (Human CXCR2 [10]): 6.6 nM | Cynomologus WBSC IC50 (rhGROα) (Cynomolgus CXCR2 [11]): > 100 nM

B2: CXCR20086 (VHH)
VHH: B1 VHH with V5L, A14P, A75S, M79L, K87R, Q119L
FLIPR hGro-α IC50 (Human CXCR2 [1]): 73 nM | FLIPR hGro-α IC50 (Cynomolgus CXCR2 [2]): 85 nM | IC50 (Human CXCR2 [8]): 2 nM | IC50 (Cynomolgus CXCR2 [9]): 4.8 nM

B3: CXCR20061 (VHH)
VHH: EVQLLESGGGLVQPGGSLRLSCAASGSIVRINTMGWYRQAPGKQRELVADITSGGNINYADSVKGRFTISRDNSKNTVYLQMNSLRPEDTAVYYCNAEIVVLVGVWTQRARTGNYWGQGTLVTVSS
notes: also called RD-HBC793; RDHBC 793
Signal:Background (Human CXCR2 [12]): 6.9 ratio | FLIPR hGro-α IC50 (Human CXCR2 [13]): 66 nM | FLIPR hGro-α IC50 (Cynomolgus CXCR2 [14]): 350 nM | IC50 (Human CXCR2 [15]): 15 nM | IC50 (Cynomolgus CXCR2 [16]): 62 nM

B4: 127D1 (VHH)
VHH: EVQLVESGGGLVQAGESLRLSCAASGSTFDFKVMGWYRQPPGKQREGVAAIRLSGNMHYAESVKGRFTISKANAKNTVYLQMNSLRPEDTAVYYCKVNIRGQDYWGQGTQVTVSS
notes: Tested as periplasmic extract (pAX50) and as purified His6-tagged protein (pAX100); also called 127D01; not shown: C-terminal c-myc tag and His6 tag coded by the vector
IC50 (Human CXCR2 [17]): 0.55 nM | IC50 (Cynomolgus CXCR2 [18]): 6.1 nM | FLIPR % inhibition max (Human CXCR2 [3]): 100% | FLIPR IC50 (GRO-α induced calcium release) (Human CXCR2 [3]): 21.9 nM | [35S]GTPγS % inhibition max (GRO-α) (Human CXCR2 [3]): 66% | [35S]GTPγS IC50 (GRO-α) (Human CXCR2 [3]): 12.5 nM | FLIPR % inhibition max (Cynomolgus CXCR2 [4]): 100% | FLIPR IC50 (GRO-α induced calcium release) (Cynomolgus CXCR2 [4]): 753 nM | % inhibition of max (Human CXCR2 [5]): 61.1% | IC50 (Human CXCR2 [5]): 0.309 nM | % inhibition of max (Cynomolgus CXCR2 [6]): 82.6% | IC50 (Cynomolgus CXCR2 [6]): 4.41 nM | FACS Gro-α competition (% inhibition) (Human CXCR2 [7]): 46.7% | ratio of binding signal relative to blank control (Human 1to19 peptide): 39.5 ratio | Human Chemotaxis IC50 (GROα) (Human CXCR2 [10]): 14 nM | Human WBSC IC50 (rhGROα) (Human CXCR2 [10]): 4.9 nM | Cynomologus WBSC IC50 (rhGROα) (Cynomolgus CXCR2 [11]): > 100 nM | IC50 (M) at 5 nM GROα (inhibition of GRO-α, FIG. 2) (Human CXCR2 [19]): 1.64e-09 M | IC50 (M) at 15 nM GROα (inhibition of GRO-α, FIG. 2) (Human CXCR2 [19]): 2.04e-09 M | IC50 (M) at 45 nM GROα (inhibition of GRO-α, FIG. 2) (Human CXCR2 [19]): 3.26e-09 M | IC50 (M) at 150 nM GROα (inhibition of GRO-α, FIG. 2) (Human CXCR2 [19]): 4.6e-09 M | FLIPR hGro-α IC50 (Human CXCR2 [20]): 15 nM | FLIPR hGro-α IC50 (Cynomolgus CXCR2 [21]): 1100 nM

B5: CXCR20079 (VHH)
VHH: B4 VHH with V5L, A14P, E16G, P40A, M57R, K71R, A74S, Q110L
notes: also called RD-HBC792; RDHBC 792
Signal:Background (Human CXCR2 [12]): 13 ratio | IC50 (Human CXCR2 [17]): 0.8 nM | IC50 (Cynomolgus CXCR2 [18]): 2.8 nM | FLIPR hGro-α IC50 (Human CXCR2 [20]): 10 nM | FLIPR hGro-α IC50 (Cynomolgus CXCR2 [21]): 450 nM

B6: 54B12 (VHH)
VHH: EVQLVESGGGLVQAGGSLTLSCAVSGSTFRINTMGWYRRAPGKQRELVAARDRGGYINYVDSVKGRFTVSRDNAKPTMYLQMNSLKPEDTAVYYCHAGTQDRTGRNFDRWGQGTQVTVSS
notes: Tested as periplasmic extract (pAX50) and as purified His6-tagged protein (pAX100); also called 054B12; not shown: C-terminal c-myc tag and His6 tag coded by the vector
FLIPR hGro-α IC50 (Human CXCR2 [22]): 150 nM | FLIPR hGro-α IC50 (Cynomolgus CXCR2 [23]): 1100 nM | IC50 (Cynomolgus CXCR2 [24]): 33 nM | FLIPR % inhibition max (Human CXCR2 [3]): 100% | FLIPR IC50 (GRO-α induced calcium release) (Human CXCR2 [3]): 153 nM | [35S]GTPγS % inhibition max (GRO-α) (Human CXCR2 [3]): 71.8% | [35S]GTPγS IC50 (GRO-α) (Human CXCR2 [3]): 15.4 nM | FLIPR % inhibition max (Cynomolgus CXCR2 [4]): 100% | FLIPR IC50 (GRO-α induced calcium release) (Cynomolgus CXCR2 [4]): 4080 nM | % inhibition of max (Human CXCR2 [5]): 35% | IC50 (Human CXCR2 [5]): 0.857 nM | % inhibition of max (Cynomolgus CXCR2 [6]): 63% | IC50 (Cynomolgus CXCR2 [6]): 39.5 nM | ratio of binding signal relative to blank control (Human 1to19 peptide): 75.5 ratio | Human WBSC IC50 (rhGROα) (Human CXCR2 [10]): 19.7 nM | Cynomologus WBSC IC50 (rhGROα) (Cynomolgus CXCR2 [11]): > 100 nM

B7: CXCR20104 (VHH)
VHH: B6 VHH with V5L, A14P, T19R, R39Q, V69I, A74S, K86R, Q115L
notes: also called CXCR2104
FLIPR hGro-α IC50 (Human CXCR2 [22]): 59 nM | FLIPR hGro-α IC50 (Cynomolgus CXCR2 [23]): 3500 nM | IC50 (Cynomolgus CXCR2 [24]): 13 nM
